Measurements from article PMC5240640.
pIC50: −log10 of the molar value.

Legend:
[1] = molecular target: His-tagged FcγRI (R&D Systems, cat no. 1257-FC) (UniProt P12314); assay: AlphaScreen or HTRF; competitive: biotinylated human IgG1 (200 ng/mL) on streptavidin donor beads, His-tagged FcγR (200 ng/mL) on nickel chelate acceptor beads, unlabeled competitor antibody in serial dilutions; 1xPBS, 0.05% BSA, 0.01% Tween 20, pH 7.2; RT 1 h; IC50 interpolated at 50% maximal activity
[2] = molecular target: His-tagged FcγRIIIa (R&D Systems, cat no. 4325-FC) (UniProt P08637); assay: as above
[3] = molecular target: His-tagged FcγRIIa (R&D Systems, cat no. 1330-CD/CF) (UniProt P12318); assay: as above
[4] = molecular target: His-tagged FcγRIIIa (R&D Systems, cat no. 4325-FC) (UniProt P08637)
[5] = molecular target: His-tagged FcγRIIIa (R&D Systems, cat no. 4325-FC) (UniProt P08637); remark: listed apart in the source

pIC50 [1] | pIC50 [2] | pIC50 [3] | ADCC against H1975 cells with donor PBMCs, EC20 (antibody concentration needed to elicit 20% lysis) [4] [nM] | ADCC against H1975 cells with donor PBMCs, Emax (% compared to complete lysis) [4] [%] | ADCC against HCC-827 cells with donor PBMCs, EC20 (antibody concentration needed to elicit 20% lysis) [5] [nM] | ADCC against HCC-827 cells with donor PBMCs, Emax (% compared to complete lysis) [5] [%] | Substance
8.06 | 7.49 | 5.90 | – | – | – | – | IgG1 isotype - NF (antibody)
8.04 | 8.00 | 6.02 | 0.0015 | 59 | 0.0376 | 31 | JNJ-61186372 - LF (EGFR x c-Met bispecific antibody, low fucose)
7.94 | 7.42 | 5.97 | 0.15 | 40 | 0.645 | 30 | JNJ-61186372 - NF (EGFR x c-Met bispecific antibody, normal fucose)
